According to patent publication US5574007:
One block for each binder: values may come before it.

Assays:
[1] = molecular target: protein C
[2] = molecular target: thrombin
[3] = molecular target: protein C; remark: listed apart in the source
[4] = molecular target: thrombin; remark: listed apart in the source

production of activated protein C [1]: 1.7 pmol | production of activated protein C [2]: 1.7 pmol
B1: polypeptide E45 (receptor)
chain: DPCFRANCEYQCQPLNQTSYLCVCAEGFAPIPHEPHRCQMFCNQTACPADCDPNTQASCECPEGYILDDGFICTDI

amount of activated protein C formed, 30 min after the polypeptide addition (Example 5) (% larger than with E456Glu) [3]: 80 | amount of activated protein C formed, 30 min after the polypeptide addition (Example 5) (% larger than with E456Glu) [4]: 80
B2: polypeptide E456GlaAsp (receptor)
chain: PVEDPCFRANCEYQCQPLNQTSYLCVCAEGFAPIPHEPHRCQMFCNQTACPADCDPNTQASCECPEGYILDDGFICTDIDECENGGFCSGVCHNLPGTFECICGPDSALVRHIGTDC
modifications: gamma-carboxyglutamic acid (Gla) in place of the Glu inserted before Asp367 (third residue of the purified polypeptide, where Edman degradation detected no amino acid; Gla confirmed by amino acid analysis)
